PMC12093943, “The TetR-like regulator Sco4385 and Crp-like regulator Sco3571 modulate heterologous production of antibiotics in Streptomyces coelicolor M512” (Applied and Environmental Microbiology, 2025)

Target: the molecule itself
Assay: SEC-MALS; Superose 6 increase 10/300 GL, room temperature, running buffer 50 mM Tris-HCl (pH 7.5), 250 mM NaCl, flow rate 0.4 mL/minute; MiniDAWN Treos

B1: TetR-family regulator Sco4385 (His-tagged) (natural protein, Streptomyces coelicolor M512, UniProt Q9K3V9 1-202, looked up)
chain: MNAADRTERVPKQDRSRATRQRLLEAAVACLAERGWAGSTVSVVAEHAGVSRGAAQHHFPTREDLFTAAVEYVAEERSIALRALFPEGAAADDRRAVVAALVDLYTGPLFRAALHLWVAASNEEQLRGRVTELEARVGRESHRIAVELLGADETRPGARETVQGLLDMARGLGLANLLTDDGARRERVVEQWARLLDAALAQ
notes: TetR-family regulator Sco4385 of Streptomyces coelicolor M512; Expressed from the vector pHis8 (plasmid pSW21); No tag cleavage is described; also called TFR Sco4385; TetR-type regulator Sco4385; source: E. coli BL21 DE3, purified (Ni-NTA chromatography, size exclusion chromatography)
stoichiometry N: 2
